Tested on: Escherichia coli TOP10
Test: shrunken log2 fold change of peptide-encoding DNA abundance (4.5 h post-induction vs induction); higher = less antimicrobial activity (less host growth inhibition)
Conditions: time post-induction: 4.5 h; library: site-saturation at positions 5, 18, 19, 20
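Also: peptides expressed intracellularly from a pBAD plasmid library in pooled LB shake-flask culture, induced with 0.3% L-arabinose, DNA abundance read by NGS, three biological replicates, DESeq2 with apeglm shrinkage.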

| Sequence | shrunken log2 fold change |
| --- | --- |
| RRIRSRPPRLPRPRPRPGVEPRP | 0.463 |
| RRIRCRPPRLPRPRPRPPHQPRP | 0.746 |
| RRIRGRPPRLPRPRPRPHDKPRP | 0.475 |
| RRIRPRPPRLPRPRPRPKVDPRP | 0.0884 |
| RRIRHRPPRLPRPRPRPTPKPRP | -0.0377 |
| RRIRQRPPRLPRPRPRPVIPPRP | -1.12 |
| RRIRYRPPRLPRPRPRPNFSPRP | -0.401 |
| RRIRKRPPRLPRPRPRPHISPRP | -0.00759 |
| RRIRGRPPRLPRPRPRPLTTPRP | 1.82 |
| RRIRYRPPRLPRPRPRPHHNPRP | -1.28 |
| RRIRWRPPRLPRPRPRPHHLPRP | -0.71 |
| RRIRHRPPRLPRPRPRPAWRPRP | 0.654 |
| RRIRRRPPRLPRPRPRPFRTPRP | -0.0909 |
| RRIRARPPRLPRPRPRPVDFPRP | 0.39 |
| RRIRTRPPRLPRPRPRPQWPPRP | 0.0505 |
| RRIRLRPPRLPRPRPRPNCCPRP | -0.0382 |
| RRIRGRPPRLPRPRPRPFASPRP | 0.215 |
| RRIRIRPPRLPRPRPRPVYRPRP | 0.00778 |
| RRIRLRPPRLPRPRPRPRSNPRP | 1.62 |
| RRIRPRPPRLPRPRPRPAMFPRP | 0.0516 |
| RRIRARPPRLPRPRPRPSWRPRP | 0.263 |
| RRIRQRPPRLPRPRPRPTPDPRP | 0.711 |
| RRIRSRPPRLPRPRPRPMVVPRP | 0.149 |
| RRIRNRPPRLPRPRPRPSEPPRP | -0.0146 |
| RRIRFRPPRLPRPRPRPYWVPRP | -0.683 |

| Sequence | shrunken log2 fold change |
| --- | --- |
| RRIRCRPPRLPRPRPRPHEWPRP | 0.00702 |
| RRIRRRPPRLPRPRPRPPRIPRP | 1.08 |
| RRIRPRPPRLPRPRPRPVLEPRP | -0.147 |
| RRIRFRPPRLPRPRPRPKWEPRP | 0.223 |
| RRIRTRPPRLPRPRPRPYAKPRP | -0.0117 |
| RRIRLRPPRLPRPRPRPPHSPRP | 0.0872 |
| RRIRPRPPRLPRPRPRPWIHPRP | -0.44 |
| RRIRSRPPRLPRPRPRPFFSPRP | -0.13 |
| RRIRIRPPRLPRPRPRPPIYPRP | -0.592 |
| RRIRKRPPRLPRPRPRPNEHPRP | 0.448 |
| RRIRCRPPRLPRPRPRPSPRPRP | 0.485 |
| RRIRSRPPRLPRPRPRPAGPPRP | 0.493 |
| RRIRFRPPRLPRPRPRPSHEPRP | 0.204 |
| RRIRPRPPRLPRPRPRPQEWPRP | 0.0248 |
| RRIRNRPPRLPRPRPRPNKVPRP | -0.642 |
| RRIRCRPPRLPRPRPRPWHDPRP | -0.142 |
| RRIRKRPPRLPRPRPRPTNYPRP | -0.114 |
| RRIRARPPRLPRPRPRPKIEPRP | 0.173 |
| RRIRARPPRLPRPRPRPKCNPRP | 0.0681 |
| RRIRQRPPRLPRPRPRPEHEPRP | 0.0155 |
| RRIRVRPPRLPRPRPRPWNEPRP | -0.0886 |
| RRIRHRPPRLPRPRPRPVNWPRP | 0.18 |
| RRIRVRPPRLPRPRPRPNMNPRP | -0.745 |
| RRIRDRPPRLPRPRPRPHQIPRP | -0.248 |
| RRIRIRPPRLPRPRPRPTSEPRP | 0.00551 |

| Sequence | shrunken log2 fold change |
| --- | --- |
| RRIRLRPPRLPRPRPRPTDMPRP | -0.633 |
| RRIRTRPPRLPRPRPRPYVQPRP | -0.0752 |
| RRIRCRPPRLPRPRPRPVLAPRP | -0.0206 |
| RRIRQRPPRLPRPRPRPKYFPRP | 0.0276 |
| RRIRWRPPRLPRPRPRPERPPRP | 0.292 |
| RRIRRRPPRLPRPRPRPANGPRP | -0.164 |
| RRIRGRPPRLPRPRPRPFHRPRP | -0.118 |
| RRIRGRPPRLPRPRPRPNYQPRP | -0.173 |
| RRIRIRPPRLPRPRPRPNSCPRP | -0.184 |
| RRIRRRPPRLPRPRPRPFYKPRP | -0.173 |
| RRIRKRPPRLPRPRPRPKCIPRP | 0.317 |
| RRIRCRPPRLPRPRPRPHPTPRP | -0.0382 |
| RRIRMRPPRLPRPRPRPCQQPRP | 0.0325 |
| RRIRTRPPRLPRPRPRPAVGPRP | 0.532 |
| RRIRLRPPRLPRPRPRPVCAPRP | 0.174 |
| RRIRQRPPRLPRPRPRPMGPPRP | -0.0254 |
| RRIRCRPPRLPRPRPRPCCKPRP | -0.0101 |
| RRIRLRPPRLPRPRPRPAPPPRP | 0.676 |
| RRIRDRPPRLPRPRPRPSGIPRP | -0.0212 |
| RRIRFRPPRLPRPRPRPIMTPRP | -0.368 |
| RRIRYRPPRLPRPRPRPVPFPRP | -0.348 |
| RRIRPRPPRLPRPRPRPVITPRP | -0.123 |
| RRIRYRPPRLPRPRPRPMTYPRP | -0.0131 |
| RRIRGRPPRLPRPRPRPQVMPRP | 0.532 |
| RRIRERPPRLPRPRPRPINKPRP | -0.506 |

| Sequence | shrunken log2 fold change |
| --- | --- |
| RRIRDRPPRLPRPRPRPDCNPRP | 0.685 |
| RRIRRRPPRLPRPRPRPRNWPRP | 0.319 |
| RRIRVRPPRLPRPRPRPVCHPRP | -0.29 |
| RRIRRRPPRLPRPRPRPAITPRP | -0.0525 |
| RRIRVRPPRLPRPRPRPWTMPRP | -0.134 |
| RRIRHRPPRLPRPRPRPEICPRP | -0.00961 |
| RRIRERPPRLPRPRPRPADCPRP | 0.0519 |
| RRIRTRPPRLPRPRPRPFWIPRP | -0.34 |
| RRIRMRPPRLPRPRPRPHNGPRP | -0.337 |
| RRIRHRPPRLPRPRPRPWNNPRP | -0.453 |
| RRIRRRPPRLPRPRPRPSNSPRP | -0.108 |
| RRIRERPPRLPRPRPRPHRSPRP | -0.103 |
| RRIRQRPPRLPRPRPRPWYVPRP | -0.0198 |
| RRIRVRPPRLPRPRPRPNAYPRP | -0.572 |
| RRIRDRPPRLPRPRPRPNMLPRP | 0.0937 |
| RRIRFRPPRLPRPRPRPGEAPRP | 0.416 |
| RRIRDRPPRLPRPRPRPMKAPRP | 0.0349 |
| RRIRCRPPRLPRPRPRPSYIPRP | -0.675 |
| RRIRPRPPRLPRPRPRPIQYPRP | -0.642 |
| RRIRGRPPRLPRPRPRPTCMPRP | 0.879 |
| RRIRQRPPRLPRPRPRPWKNPRP | 0.033 |
| RRIRPRPPRLPRPRPRPISFPRP | -0.101 |
| RRIRARPPRLPRPRPRPTRYPRP | 0.356 |
| RRIRQRPPRLPRPRPRPCTQPRP | -0.0306 |
| RRIRHRPPRLPRPRPRPHWCPRP | -0.0566 |

| Sequence | shrunken log2 fold change |
| --- | --- |
| RRIRQRPPRLPRPRPRPVRMPRP | 0.149 |
| RRIRCRPPRLPRPRPRPQNAPRP | -0.372 |
| RRIRHRPPRLPRPRPRPNMRPRP | 0.0719 |
| RRIRIRPPRLPRPRPRPSCFPRP | -0.625 |
| RRIRQRPPRLPRPRPRPGTKPRP | 0.0136 |
| RRIRFRPPRLPRPRPRPWYFPRP | -0.303 |
| RRIRVRPPRLPRPRPRPWPSPRP | 0.143 |
| RRIRKRPPRLPRPRPRPYGHPRP | -0.162 |
| RRIRYRPPRLPRPRPRPFAMPRP | -0.844 |
| RRIRNRPPRLPRPRPRPPNVPRP | -0.0463 |
| RRIRQRPPRLPRPRPRPNWWPRP | 0.00333 |
| RRIRMRPPRLPRPRPRPMVKPRP | 0.0401 |
| RRIRHRPPRLPRPRPRPVCPPRP | -0.0334 |
| RRIRTRPPRLPRPRPRPVHVPRP | 0.039 |
| RRIRGRPPRLPRPRPRPKEWPRP | -0.00523 |
| RRIRERPPRLPRPRPRPVYCPRP | -0.477 |
| RRIRARPPRLPRPRPRPMFNPRP | -0.132 |
| RRIRKRPPRLPRPRPRPLAGPRP | 0.286 |
| RRIRIRPPRLPRPRPRPVICPRP | -0.063 |
| RRIRIRPPRLPRPRPRPQTVPRP | -0.271 |
| RRIRDRPPRLPRPRPRPIEVPRP | -0.13 |
| RRIRERPPRLPRPRPRPWLFPRP | -0.0723 |
| RRIRDRPPRLPRPRPRPGHQPRP | 0.137 |
| RRIRVRPPRLPRPRPRPLQEPRP | 0.298 |
| RRIRHRPPRLPRPRPRPEGVPRP | 0.0659 |
